Results from patent US20230392122A1, “LONG-TERM AND FUNCTIONAL CULTURE OF HEPATIC ORGANOIDS (eHEPO) DERIVED FROM EPCAM+ ENDODERMAL PROGENITOR CELLS DIFFERENTIATED FROM INDUCED PLURIPOTENT STEM CELLS” (DOKUZ EYLUL UNIVERSITESI REKTORLUGU, priority 2020, published 2023).
“Also recorded” adds a separate entry of the source.

Test system: IPSC-derived endoderm cells
Test: Endoderm differentiation of IPSCs with R-spo1 added, flow cytometry for EpCAM
Format: cell-based, human
Conditions: 5 ng/ml R-spo1 added to endoderm medium
Method: To start with, IPSCs were differentiated into definitive endoderms in a medium containing 100 ng/mL Activin A, 50 ng/mL Wnt3a, and 5 ng/mL R-spo1factors for 5 days (FIG. 1A). During the definitive endoderm development stage, the parenchymal cells of the liver derive from a specific germ layer. […] In particular, it is evident that following independent differentiations, the percentage of CXCR4+/EpCAM+ endodermal cells derived from three independent IPSC lines (WT1, WT2 and WT3) is not too different from one another, and that the endodermal induction step of the protocol can be repeated (FIG. 1B). At this point of the assay, the differentiation medium was modified to obtain more EpCAM+ endoderm cells. Wnt signalling pathway agonist and 5 ng/ml R-spo1, which is known to play a significant role in stem cell growth, were added to the endoderm medium. […] As a result, this protocol enables IPSCs to differentiate into more EpCAM+endoderm cells in two-dimensional mediums.

B1: R-spo1: Wnt signalling pathway agonist known to play a significant role in stem cell growth, added to the endoderm medium (protein, UniProt Q2MKA7 21-263, looked up)
R-spondin-1: SRGIKGKRQRRISAEGSQACAKGCELCSEVNGCLKCSPKLFILLERNDIRQVGVCLPSCPPGYFDARNPDMNKCIKCKIEHCEACFSHNFCTKCKEGLYLHKGRCYPACPEGSSAANGTMECSSPAQCEMSEWSPWGPCSKKQQLCGFRRGSEERTRRVLHAPVGDHAACSDTKETRRCTVRRVPCPEGQKRRKGGQGRRENANRNLARKESKEAGAGSRRRKGQQQQQQQGTVGPLTSAGPA
Question: Which results are given for B1?
Answer: morphology of the cells (DIC images): not affected negatively; EpCAM ratio / number of EpCAM (+) cells (flow cytometry, three healthy IPSCs): causes an increase in the number of EpCAM (+) cells; also recorded: increases the EpCAM ratio considerably
